Values of other authors in article PMC8268101.
pKd: −log10 of the molar value.

Biological target: C1q (Homo sapiens) (UniProt P02745)
Experiment: SPR

UniProt P02745, sequence (P02745 23-245, chain 1 of 3): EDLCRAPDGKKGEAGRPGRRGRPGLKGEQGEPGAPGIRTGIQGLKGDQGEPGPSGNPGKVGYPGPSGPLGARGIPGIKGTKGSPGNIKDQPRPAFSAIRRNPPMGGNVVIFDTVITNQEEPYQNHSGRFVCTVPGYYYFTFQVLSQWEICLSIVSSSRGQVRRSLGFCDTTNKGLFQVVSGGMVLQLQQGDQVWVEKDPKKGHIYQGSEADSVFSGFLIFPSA
UniProt P02745, sequence (P02746 28-253, chain 2 of 3, further chain): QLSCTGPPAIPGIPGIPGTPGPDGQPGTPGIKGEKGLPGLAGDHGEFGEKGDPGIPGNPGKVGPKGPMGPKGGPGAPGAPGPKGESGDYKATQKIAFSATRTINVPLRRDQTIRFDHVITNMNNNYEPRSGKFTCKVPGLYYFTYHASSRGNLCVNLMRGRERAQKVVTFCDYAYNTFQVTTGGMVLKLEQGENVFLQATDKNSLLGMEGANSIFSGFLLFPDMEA
UniProt P02745, sequence (P02747 29-245, chain 3 of 3, further chain): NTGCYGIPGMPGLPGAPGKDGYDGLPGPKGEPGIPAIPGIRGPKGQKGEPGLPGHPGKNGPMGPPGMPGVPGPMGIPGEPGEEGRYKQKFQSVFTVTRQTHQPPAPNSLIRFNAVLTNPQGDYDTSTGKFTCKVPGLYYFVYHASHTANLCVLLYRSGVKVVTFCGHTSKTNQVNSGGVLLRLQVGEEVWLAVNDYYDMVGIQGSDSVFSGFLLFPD

pKd: 5.25
Substance: RAGE (from UniProt Q15109)
